To fix the notation:
T1: oxidized FRPcc (L33C/I43C mutant of Synechocystis FRP), disulfide-trapped dimer (Synechocystis, UniProt P74103 1-109, L33C | I43C, intersubunit disulfide bridges between C33 and C43)
T1 sequence: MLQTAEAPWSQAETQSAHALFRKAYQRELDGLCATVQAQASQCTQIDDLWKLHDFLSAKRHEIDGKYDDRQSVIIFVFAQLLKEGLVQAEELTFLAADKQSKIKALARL

T2: OCP–F299C mutant of Synechocystis OCP (Synechocystis sp. PCC 6803, UniProt P74102 1-317, F299C)
T2 sequence (looked up): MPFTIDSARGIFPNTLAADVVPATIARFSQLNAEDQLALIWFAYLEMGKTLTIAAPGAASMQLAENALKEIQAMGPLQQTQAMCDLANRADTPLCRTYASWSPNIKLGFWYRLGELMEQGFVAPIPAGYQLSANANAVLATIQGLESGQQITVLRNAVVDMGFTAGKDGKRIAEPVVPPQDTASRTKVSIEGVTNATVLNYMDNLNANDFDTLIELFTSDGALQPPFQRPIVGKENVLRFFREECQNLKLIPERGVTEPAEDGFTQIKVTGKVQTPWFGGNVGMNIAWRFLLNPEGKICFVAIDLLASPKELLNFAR

T3: ∆NTE^O, orange form of Synechocystis OCP lacking the N-terminal extension (residues 1–20) (Synechocystis sp. PCC 6803, UniProt P74102 21-317)
T3 construct: orange carotenoid protein (OCP) of Synechocystis sp; PCC 6803 without the NTE (residues 1–20); also called ∆NTE^O monomer
T3 sequence (looked up): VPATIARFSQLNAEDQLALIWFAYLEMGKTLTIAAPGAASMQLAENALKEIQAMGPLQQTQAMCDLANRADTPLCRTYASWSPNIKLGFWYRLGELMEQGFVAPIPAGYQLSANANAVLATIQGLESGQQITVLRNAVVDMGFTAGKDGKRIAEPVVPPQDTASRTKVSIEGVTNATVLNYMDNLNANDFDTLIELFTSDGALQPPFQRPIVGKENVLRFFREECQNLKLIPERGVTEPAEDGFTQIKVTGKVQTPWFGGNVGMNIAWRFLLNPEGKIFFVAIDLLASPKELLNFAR

T4: COCP, individual C-terminal domain of Synechocystis OCP (amino acids 165–317) (Synechocystis sp. PCC 6803, UniProt P74102 165-317)
T4 construct: C-terminal domain of the orange carotenoid protein (OCP) of Synechocystis sp; PCC 6803, amino acids 165–317; also called CTD; individual CTD
T4 sequence (looked up): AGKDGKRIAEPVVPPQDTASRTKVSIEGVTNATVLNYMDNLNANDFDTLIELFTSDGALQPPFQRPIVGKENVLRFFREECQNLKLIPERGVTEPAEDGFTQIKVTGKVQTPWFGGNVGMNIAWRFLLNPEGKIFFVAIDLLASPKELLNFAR

T5: OCP^Y201A/W288A, constantly active mutant of Synechocystis orange carotenoid protein (Synechocystis sp. PCC 6803, UniProt P74102 1-317, Y201A | W288A)
T5 construct: orange carotenoid protein (OCP) of Synechocystis sp; PCC 6803 with Y201A and W288A; also called OCP^AA
T5 sequence (looked up): T2 sequence (looked up) with Y201A, W288A, C299F

B1: ∆NTE^O, orange form of Synechocystis OCP lacking the N-terminal extension (residues 1–20) (domain or fragment)
chain: T3 sequence (looked up)
B2: wild-type Synechocystis fluorescence recovery protein (FRP), His6-tagged, residues 1–109 (natural protein, UniProt P74103 1-109, looked up)
chain: T1 sequence with C33L, C43I
notes: fluorescence recovery protein (FRP) of Synechocystis, residues 1–109; cloned into pQE81L by BamHI/HindIII; Uncleavable tag; Dissociable dimer; also called FRPwt; wild-type FRP; not shown: His6, N-terminal, kept
B3: FRP–K102C mutant of Synechocystis FRP (natural protein, UniProt P74103 1-109, looked up)
chain: T1 sequence with C33L, C43I, K102C
notes: fluorescence recovery protein (FRP) of Synechocystis with K102C, from M1 (N-terminus after cleavage of the tag: GPDPATM1LQ…); the wild-type construct is residues 1–109; pQE81M vector; the His6 tag is cleavable by 3C protease and leaves GPDPAT before M1
B4: FRPcc (L33C/I43C mutant of Synechocystis FRP) under reducing conditions (natural protein, UniProt P74103 1-109, looked up)
chain: T1 sequence
notes: fluorescence recovery protein (FRP) of Synechocystis, residues 1–109, with L33C and I43C; made from the His6-tagged wild-type template; Cysteines reduced; dissociable dimer (dimeric above 10 µM load, partly dissociates on dilution); also called redFRPcc; not shown: His6, N-terminal, kept
B5: oxidized FRPcc (L33C/I43C mutant of Synechocystis FRP), disulfide-trapped dimer (natural protein, UniProt P74103 1-109, looked up)
chain: T1 sequence
modifications: intersubunit disulfide bridges between C33 and C43
notes: fluorescence recovery protein (FRP) of Synechocystis, residues 1–109, with L33C and I43C; made from the His6-tagged wild-type template; Same polypeptide as m3, but covalently fixed as a dimer that cannot monomerize; 22 N-terminal residues of the construct are absent from 4JDX; also called oxFRPcc; oxFRPcc dimer; source: E. coli T7 SHuffle express, purified in the absence of reducing agents, …

Residue numbers refer to the chain shown, from its start. Numbers in names are those of the source. Where “and” joins values, the source holds several entries; their conditions need not be identical. Equal entries are not always repeated.

Series [1] concerns the target OCP(O) (Synechocystis sp.) (UniProt P74102). The settings on record: cited from earlier work.
The target of series [2] is ∆NTE^O, orange form of Synechocystis OCP lacking the N-terminal extension (residues 1–20) (Synechocystis sp. PCC 6803) (UniProt P74102). Description: cross-linking; FRP species, ∆NTE^O or their mixtures in 20 mM Hepes-NaOH pH 7.5, 150 mM NaCl, 0.1 mM EDTA; 0.1% glutaraldehyde, 25 min, room temperature; 15% SDS-PAGE (no reducing agents with oxFRPcc). The settings on record: scale: FRP chains per OCP.

In series [3] the target is T1, oxidized FRPcc (L33C/I43C mutant of …).
Series [4] concerns the target B1.
The target of series [5] is T2, OCP–F299C mutant of Synechocystis OCP. Description: cell-based or functional assay.
The target in series [6] is T3, ∆NTE^O, orange form of Synechocystis …. Nature of the series: cross-linking; FRP species, ∆NTE^O or their mixtures in 20 mM Hepes-NaOH pH 7.5, 150 mM NaCl, 0.1 mM EDTA; 0.1% glutaraldehyde, 25 min, room temperature; 15% SDS-PAGE (no reducing agents with oxFRPcc). The settings on record: both partners purified.
Series [7] concerns the molecule itself. Nature of the series: SEC; FRP species alone, 1–40 µM per monomer, pre-incubated at least 20 min at room temperature; Superdex 200 Increase 10/300; 20 mM Tris-HCl pH 7.6, 150 mM NaCl, 0.1 mM EDTA, 3 mM βME (reducing); dimer to monomers.
The target in series [8] is T2, OCP–F299C mutant of Synechocystis OCP. Nature of the series: cross-linking; disulfide trapping: OCP–F299C apoform mixed with FRP–F76C or FRP–K102C, oxidized in the dark by dialysis at 4 °C against GSH/GSSG (or 30–60 min with 10–50 mM H2O2); SDS-PAGE with or without 20 mM βME. The settings on record: both partners purified.
Series [9] has as its target T3, ∆NTE^O, orange form of Synechocystis …. Description: SEC; redFRPcc or FRP-L49E (50 µM) pre-incubated with OCP^AA (37 µM), ∆NTE^O (6 µM) or COCP (8 µM); Superdex 200 Increase 10/300; 280 nm and carotenoid-specific absorbance. The settings on record: both partners purified.
Series [10] addresses T4, COCP, individual C-terminal domain of …. The description is as above. The settings on record: both partners purified.
The target of series [11] is T5, OCP^Y201A/W288A, constantly active …. The series is described as above. The settings on record: both partners purified.
Series [12] deals with T3, ∆NTE^O, orange form of Synechocystis …. Nature of the series: SAXS; oxFRPcc alone (1.7 mg ml^−1) and the ∆NTE^O–oxFRPcc complex (2.41 mg ml^−1, ~40 µM); batch mode, 10 °C, SEC buffer with 3% glycerol, no reducing agents. The settings on record: both partners purified.
Series [13] deals with the molecule itself. The description is as above.

Here are results for seven molecules from article PMC6155142, “OCP–FRP protein complex topologies suggest a mechanism for controlling high light tolerance in cyanobacteria” (Nature Communications, 2018).

With FRP (from UniProt P74103), in series [1], the dissociation constant (Kd) was 35000 nM.

For “FRP homolog from Anabaena variabilis (natural protein)”, the stoichiometry N in series [2] was 1 and 2.

In turn, B1 had a Kd in series [3] of 220 nM.

For B2, binding in series [4] was put at a Kd of 190 nM. The “acceleration of the R–O conversion of photoactivated OCP–F299C at 25 °C” value in series [5] was about 20 fold. In addition, the “stoichiometry N” value in series [6] is 1 FRP chains per OCP (printed as OCP:FRP 1:1) and 2 FRP chains per OCP (printed as OCP:FRP 1:2); in series [7] it was 2.

Turning to B3, the “stoichiometry N” value in series [8] is 1 FRP chains per OCP (printed as 1:1).

As for B4, the binding result in series [9], in [10] and in [11] was “binds” each time. Besides, in [7], the “stoichiometry N” value was found to be 2.

As for B5, the “stoichiometry N” value is 2 FRP chains per OCP (printed as 2:1) in series [12]; 2 in series [13]; 2 FRP chains per OCP (printed as OCP:FRP 1:2) and 1 FRP chains per OCP (printed as OCP:FRP 2:2) in series [6].
